Measurements from US20210206842A1 (NATIONAL RESEARCH COUNCIL OF CANADA, published 2021).

Key:
VHH FC5 = target: T1, VHH FC5; test: SPR, VHH flowed over immobilized FC5, 25 C
T1 construct: put together from its FR and CDR entries; also called FC5-VHH; FC5 control
Source text: (§1) Surface Plasmon Resonance for VHH antibodies. […] Monomeric VHH fractions were collected and protein concentration determined by measuring A280 measurement. Using a Biacore T200 instrument (GE Healthcare), approximately 500-1000 RUs of FC5DIE3IR, FC5 and an irrelevant VHH (2A3-H4) were immobilized on a CM5 Series S sensor chip (GE Healthcare) at pH 4.0 using standard amine coupling according to the manufacturer's instructions (GE Healthcare). […] Surfaces were regenerated by washing with a 120 s pulse of 10 mM glycine pH 1.5. Data were analyzed with Biacore T200 Software v 3.0 and affinities determined using steady state binding or a 1:1 binding model.
(§2) Surface Plasmon Resonance (SPR).

[1] = target: T2, FC5DIE3IR recombinant protein; test: SPR (Biacore T200), VHH flowed over immobilized FC5DIE3IR, steady-state fit, 25 C
T2 construct: Made in CHO-3E7 cells; also called FC5DIE31R; FC5DIE3R
Source text: as §1, §2

T1 sequence (VHH, as listed by the source): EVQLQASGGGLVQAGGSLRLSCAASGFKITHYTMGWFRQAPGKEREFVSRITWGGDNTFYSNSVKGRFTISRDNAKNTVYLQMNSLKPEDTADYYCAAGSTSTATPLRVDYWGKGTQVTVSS

B1: VHH DI-48 (VHH)
VHH: QVQLVESGGGLVQAGGSLRLSCAASGRTFSTYVMGWFRQTPGKEREFVAGFSWSGDYAIYVNSVKGRFTISRDNAKNTVYLQMNSLRPEDTAVYYCAARQRGGYSGRSYYTGRNDYEYWGQGTQVTVSS
notes: From the FC5DIE3IR llama immune library; soluble tagged monomer in SPR; not shown: cmyc and His6 tags at the C-terminus
VHH FC5
  binding result: no binding (tested: 312 nM-5000 nM)
[1]
  Kd: 8.4 µM
